Tests used:
[1] = target: TBP6.9 (Homo sapiens (lab-evolved)) (UniProt P09012); test: ITC; conditions: ITC: 50 mM Na-HEPES pH 7.5, 50 mM NaCl, 50 mM KCl, 2 mM MgCl2, 5 mM beta-mercaptoethanol, 20 C; protein in syringe, RNA in cell
[2] = target: TBP6.9(F34M/F37M/F77M) 7Se-Met (Homo sapiens (lab-evolved)) (UniProt P09012); test: ITC; conditions: ITC: 50 mM Na-HEPES pH 7.5, 50 mM NaCl, 50 mM KCl, 2 mM MgCl2, 5 mM beta-mercaptoethanol, 20 C; protein in syringe, RNA in cell
[3] = target: dmU1A (U1A RRM1 Y31H/Q36R) (Homo sapiens, UniProt P09012 1-98, Y31H;Q36R); test: ITC; ITC: 50 mM Na-HEPES pH 7.5, 50 mM NaCl, 50 mM KCl, 2 mM MgCl2, 5 mM beta-mercaptoethanol, 20 C; protein in syringe, RNA in cell; conditions: protein: recombinant; tags: N-terminal 6xHis removed with TEV protease; hairpin, loop closed by C65-G76
[4] = target: dmU1A(F37M/F77M) 7Se-Met (Homo sapiens, UniProt P09012 1-98, Y31H;Q36R;F37M;F77M); test: ITC; Se-Met protein; ITC: 50 mM Na-HEPES pH 7.5, 50 mM NaCl, 50 mM KCl, 2 mM MgCl2, 5 mM beta-mercaptoethanol, 20 C; protein in syringe, RNA in cell; conditions: protein: recombinant; tags: N-terminal 6xHis removed with TEV protease; hairpin, loop closed by C65-G76
Chain of dmU1A(F37M/F77M) 7Se-Met (P09012 1-98 Y31H/Q36R/F37M/F77M): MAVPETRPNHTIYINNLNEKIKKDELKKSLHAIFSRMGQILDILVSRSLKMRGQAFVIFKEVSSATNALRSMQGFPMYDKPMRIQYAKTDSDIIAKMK

Chain of TBP6.9(F34M/F37M/F77M) 7Se-Met (Homo sapiens (lab-evolved)) (P09012 whole entry, stated change not applied): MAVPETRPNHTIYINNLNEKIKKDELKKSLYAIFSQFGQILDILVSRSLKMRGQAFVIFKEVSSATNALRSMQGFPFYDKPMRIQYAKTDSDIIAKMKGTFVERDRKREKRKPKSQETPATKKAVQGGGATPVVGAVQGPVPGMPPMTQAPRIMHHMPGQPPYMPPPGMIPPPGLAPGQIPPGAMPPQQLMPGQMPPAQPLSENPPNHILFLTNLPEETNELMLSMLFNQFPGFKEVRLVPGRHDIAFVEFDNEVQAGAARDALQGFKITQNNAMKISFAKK
Chain of TBP6.9 (Homo sapiens (lab-evolved)) (P09012 whole entry, stated change not applied): as above
Chain of dmU1A (U1A RRM1 Y31H/Q36R) (P09012 1-98 Y31H/Q36R): as the sequence (P09012 1-98 Y31H/Q36R/F37M/F77M) above, with M37F, M77F counted along it

Molecule | Kd [1] | Kd [2] | Kd [3] | Kd [4]
GCAGAUCUGAGCCCGAAAGGAGCUCUCUGC [GNRA-TAR 30-mer] | 87.8 nM | 69.8 nM |  | 
GGAGAUCUGAGCCUGGGAGCUCUCUCC [HIV-1 TAR 27-mer] | 8.5 nM | 13.5 nM |  | 
CGAAUCCAUUGCACUCCGGAUUCG (structured_RNA) [hpII 24-mer (U1 snRNA hairpin II)] |  |  | 152 ± 7 nM | 59.7 ± 11.4 nM
